Here are results for five molecules from US20240425603A1 (Janssen / Centocor, published 2024).

B1: human VEGFA165 (ligand, UniProt P15692-4 27-191, looked up)
chain: APMAEGGGQNHHEVVKFMDVYQRSYCHPIETLVDIFQEYPDEIEYIFKPSCVPLMRCGGCCNDEGLECVPTEESNITMQIMRIKPHQGQHIGEMSFLQHNKCECRPKKDRARQENPCGPCSERRKHLFVQDPQTCKCSCKNTDSRCKARQLELNERTCRCDKPRR
notes: used unlabeled and biotin labeled; also called human VEGF165 (R&D Systems); hVEGFA165
B2: Domain 2 of hVEGFR1 alone (receptor)
chain: DTGRPFVEMYSEIPEIIHMTEGRELVIPCRVTSPNITVTLKKFPLDTLIPDGKRIIWDSRKGFIISNATYKEIGLLTCEATVNGHLYKTNYLTHRQ
notes: also called human VEGFR1 D2
B3: human PlGF (ligand, UniProt P49763-2 19-149, looked up)
chain: LPAVPPQQWALSAGNGSSEVEVVPFQEVWGRSYCRALERLVDVVSEYPSEVEHMFSPSCVSLLRCTGCCGDENLHCVPVETANVTMQLLKIRSGDRPSYVELTFSQHVRCECRPLREKMKPERCGDAVPRR
notes: ligand on human and cyno VEGFR1; also called placental growth factor
B4: VGFB883 (antibody, human IgG1, lambda, L234A L235A, V domains shown)
VH: EVQLLESGGGSVQPGGSLRLSCTASGFNFEDYGMNWVRQAPGKGLDWVSSINRQGDISTYHVDSVKGRFTISRDNSKNTLYLQMNSLRAEDTAIYYCTKNHDYHGMDVWGQGTTVTVSS
VL: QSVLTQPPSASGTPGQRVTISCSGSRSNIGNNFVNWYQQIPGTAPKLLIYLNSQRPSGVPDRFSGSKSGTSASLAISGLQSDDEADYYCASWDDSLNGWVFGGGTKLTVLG
notes: human IgG1 (L234A/L235A/D265S); also called N54Q variant of VGFB54
B5: mouse VEGFA164 (ligand, UniProt Q00731-2 27-190, looked up)
chain: APTTEGEQKSHEVIKFMDVYQRSYCRPIETLVDIFQEYPDEIEYIFKPSCVPLMRCAGCCNDEALECVPTSESNITMQIMRIKPHQSQHIGEMSFLQHSRCECRPKKDRTKPENHCEPCSERRKHLFVQDPQTCKCSCKNTDSRCKARQLELNERTCRCDKPRR
notes: also called VEGFA (mouse VEGFR1 columns)

Experiment [1] has as its target recombinant human VEGFR1 (D1-D3) (human, UniProt P17948 27-328, limits assumed). Kind of experiment: SPR; VEGFR1 D1-D3.
The next experiment deals with human VEGFR1 (D2-D3) (human, UniProt P17948 130-331). Kind of experiment: SPR; VEGFR1 D2-D3. In general terms: Surface plasmon resonance follows binding to a sensor surface in real time, without labels.
Experiment [2] addresses T1, Recombinant human VEGFR1-Fc (R&D Systems) (human, UniProt P17948 27-687, limits assumed).
T1 construct: bought; not shown: Fc part of the bought fusion, not described
In words: MSD ECL competition on plate-bound human VEGFR1-Fc; competitor biotin human VEGFA165 (0.2 nM). Put shortly: (§1)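 Half-log antibody dilutions were pre-incubated for 30 minutes with VEGFR1 (human or mouse Fc fusion, or His-tagged cyno; 0.5 ug/ml) that had been captured for 1 hour at room temperature on blocked MSD 384 plates coated with Protein A/G or anti-His mAb. Biotinylated VEGFA (0.2 nM) or PlGF (2 nM) was then added and bound ligand was read with Sulfo-tagged streptavidin on an MSD SECTOR S 600 imager. IC50 and maximal percent inhibition were calculated from the electro-chemiluminescence readings.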

For experiment [3], the target named is T2, His tagged cyno VEGFR1 (cynomolgus monkey, UniProt A0A2K5VAF2 27-758). Kind of experiment: MSD ECL competition on plate-bound His-tagged cyno VEGFR1; competitor biotin human VEGFA165 (0.2 nM). The procedure, abridged: as §1
The target in experiment [4] is B1. Kind of experiment: SPR; VEGFR1 D2 alone.
The target of experiment [5] is B1. Kind of experiment: SPR; against the D1-D3 and D2-D3 constructs.
Experiment [6] has as its target T1, Recombinant human VEGFR1-Fc (R&D …). In words: MSD ECL competition on plate-bound human VEGFR1-Fc; competitor biotin PlGF (2 nM). Put shortly:
as §1

Experiment [7] concerns the target T2, His tagged cyno VEGFR1. In words: MSD ECL competition on plate-bound His-tagged cyno VEGFR1; competitor biotin human PlGF (2 nM). Put shortly: as §1
In experiment [8] the target is human VEGFR1 (soluble antigen of the KinExA and SPR affinity assays) (human, UniProt P17948 27-758, limits assumed). In words: KinExA, solution. As for the experimental part:
(§2) Kinetic exclusion assay (KEA; KinExA) was used to analyze the binding of anti-VEGFR1 antibodies to human, mouse and cynomolgus monkeys VEGFR1. KEA is a fluorescence-based solution method, and it is described in detail in the literature (Darling and Brault, 2004). To measure the affinity of an interaction, a series of solutions with a fixed concentration of one interactant (A) and varying concentrations of another interactant (B) are prepared and allowed to reach equilibrium. After equilibration, the concentration of free A is determined by flowing the equilibrated mixture through a column packed with beads modified with reactant B. Free A binds to the beads and is then detected using a fluorescently labeled polyclonal antibody.
(§3) Briefly, fixed concentrations (300 pM, 60 pM, 12 pM, 2.4 or 0.5 pM) of Ab were used to prepare a serial dilution of the antigen (2 nM to 0.52 pM, or 800 pM to 5.37 fM). The complex titrations were incubated at RT to reach binding equilibrium for at least 2 days. After incubation, the samples were run on the KinExA3200 or KinExA4000 instrument to assess free antibody in the reaction. During these studies some of the data were rejected because the experiments failed or failed the acceptance criteria. For mouse VEGFR1 the 60 and 300 pM concentrations were rejected due to high titrant related NSB. The dissociation equilibrium constant, (KD), was determined using the n-curve analysis feature of the KinExA Pro software. This program uses nonlinear least-square regression analysis of the globally fitted data to a 1:1 binding model. (CI=confidence interval).

Experiment [9] deals with cynomolgus monkey VEGFR1 (soluble antigen of the KinExA and SPR affinity assays) (cynomolgus monkey). Kind of experiment: KinExA, solution. The protocol:
as §2, §3
In general terms: In KinExA the mixture passes briefly over coated beads that capture the unbound partner.

The target in experiment [10] is T3, mouse VEGFR1 (soluble antigen of the KinExA and SPR affinity assays) (mouse, UniProt P35969 23-759, limits assumed).
T3 sequence (looked up): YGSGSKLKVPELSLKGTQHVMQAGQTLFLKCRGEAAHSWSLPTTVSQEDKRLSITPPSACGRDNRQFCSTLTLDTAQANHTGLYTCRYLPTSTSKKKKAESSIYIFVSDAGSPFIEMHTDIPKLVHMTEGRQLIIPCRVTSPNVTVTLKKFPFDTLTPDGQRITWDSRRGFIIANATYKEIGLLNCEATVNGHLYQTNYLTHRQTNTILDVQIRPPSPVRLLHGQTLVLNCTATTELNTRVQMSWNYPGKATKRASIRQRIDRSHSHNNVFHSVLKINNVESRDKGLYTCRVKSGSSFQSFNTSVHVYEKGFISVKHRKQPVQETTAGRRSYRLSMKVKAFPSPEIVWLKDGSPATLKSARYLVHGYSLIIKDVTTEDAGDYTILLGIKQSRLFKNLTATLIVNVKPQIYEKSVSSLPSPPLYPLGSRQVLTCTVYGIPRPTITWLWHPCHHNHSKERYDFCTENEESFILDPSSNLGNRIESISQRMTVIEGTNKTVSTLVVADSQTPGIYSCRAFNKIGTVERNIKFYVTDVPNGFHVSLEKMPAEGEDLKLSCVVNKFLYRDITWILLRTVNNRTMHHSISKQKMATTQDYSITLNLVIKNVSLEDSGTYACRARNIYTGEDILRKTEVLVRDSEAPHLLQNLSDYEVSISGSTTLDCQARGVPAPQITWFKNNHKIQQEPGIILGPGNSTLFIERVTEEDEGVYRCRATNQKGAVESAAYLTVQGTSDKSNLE
Kind of experiment: KinExA, solution. As for the experimental part: as §2, §3

For experiment [11], the target named is T4, human VEGFR1, full length, over-expressed on cells (human, UniProt P17948 27-1338).
T4 construct: on CHO-K1 or HEK cells; also called hVEGFR1; CHOK1/ human VEGFR1
T4 sequence (P17948 27-1338 limits assumed): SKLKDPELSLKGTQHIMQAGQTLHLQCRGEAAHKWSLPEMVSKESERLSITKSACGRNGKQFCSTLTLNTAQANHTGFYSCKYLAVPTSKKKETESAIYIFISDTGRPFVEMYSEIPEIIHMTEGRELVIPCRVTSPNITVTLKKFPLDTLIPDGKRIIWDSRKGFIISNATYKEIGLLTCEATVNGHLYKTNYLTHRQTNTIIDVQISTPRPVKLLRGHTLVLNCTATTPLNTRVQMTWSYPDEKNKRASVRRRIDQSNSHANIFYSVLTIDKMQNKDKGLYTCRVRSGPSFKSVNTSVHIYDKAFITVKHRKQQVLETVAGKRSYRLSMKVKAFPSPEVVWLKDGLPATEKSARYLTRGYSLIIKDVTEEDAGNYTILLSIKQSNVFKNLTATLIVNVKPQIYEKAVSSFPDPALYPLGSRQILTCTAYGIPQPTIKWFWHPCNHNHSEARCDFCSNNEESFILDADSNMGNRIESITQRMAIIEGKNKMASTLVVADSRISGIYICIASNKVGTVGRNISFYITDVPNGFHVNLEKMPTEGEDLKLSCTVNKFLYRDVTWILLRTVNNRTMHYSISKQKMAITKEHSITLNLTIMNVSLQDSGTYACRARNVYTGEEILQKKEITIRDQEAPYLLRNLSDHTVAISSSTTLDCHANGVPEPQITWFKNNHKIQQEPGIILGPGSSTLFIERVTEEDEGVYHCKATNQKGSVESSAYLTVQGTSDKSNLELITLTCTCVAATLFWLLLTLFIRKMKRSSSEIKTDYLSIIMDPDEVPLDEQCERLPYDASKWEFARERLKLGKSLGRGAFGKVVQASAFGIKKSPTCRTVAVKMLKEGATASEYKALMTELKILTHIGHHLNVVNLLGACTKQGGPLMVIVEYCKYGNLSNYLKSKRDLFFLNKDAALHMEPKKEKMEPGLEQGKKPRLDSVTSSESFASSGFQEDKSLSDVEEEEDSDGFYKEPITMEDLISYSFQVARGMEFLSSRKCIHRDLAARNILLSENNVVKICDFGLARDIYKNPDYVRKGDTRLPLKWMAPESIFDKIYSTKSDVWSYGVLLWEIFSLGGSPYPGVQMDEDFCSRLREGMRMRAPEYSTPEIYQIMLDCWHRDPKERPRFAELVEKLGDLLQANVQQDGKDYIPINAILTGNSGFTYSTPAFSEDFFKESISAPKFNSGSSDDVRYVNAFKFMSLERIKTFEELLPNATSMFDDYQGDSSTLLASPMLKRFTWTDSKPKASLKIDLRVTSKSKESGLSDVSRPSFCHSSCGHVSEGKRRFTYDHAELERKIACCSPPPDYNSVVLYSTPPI
In words: cell binding assay (column head prints IC50).

In experiment [12] the target is T1, Recombinant human VEGFR1-Fc (R&D …). Kind of experiment: biochemical ligand blocking assay; ligand and receptor form not given. The procedure, abridged: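 Antibodies in half-log dilutions were pre-incubated for 30 minutes with recombinant VEGFR1-Fc bound to Protein A/G-coated MSD plates, after which biotinylated ligand was added. Sulfo-tagged streptavidin and an MSD imager were used for detection in this electro-chemiluminescence ligand blocking assay, and IC50 was calculated from the readings.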

Experiment [13] concerns the target T5, Recombinant mouse VEGFR1-Fc (R&D Systems) (mouse, UniProt P35969 27-759, limits assumed).
T5 construct: bought; not shown: Fc part of the bought fusion, not described
T5 sequence (looked up): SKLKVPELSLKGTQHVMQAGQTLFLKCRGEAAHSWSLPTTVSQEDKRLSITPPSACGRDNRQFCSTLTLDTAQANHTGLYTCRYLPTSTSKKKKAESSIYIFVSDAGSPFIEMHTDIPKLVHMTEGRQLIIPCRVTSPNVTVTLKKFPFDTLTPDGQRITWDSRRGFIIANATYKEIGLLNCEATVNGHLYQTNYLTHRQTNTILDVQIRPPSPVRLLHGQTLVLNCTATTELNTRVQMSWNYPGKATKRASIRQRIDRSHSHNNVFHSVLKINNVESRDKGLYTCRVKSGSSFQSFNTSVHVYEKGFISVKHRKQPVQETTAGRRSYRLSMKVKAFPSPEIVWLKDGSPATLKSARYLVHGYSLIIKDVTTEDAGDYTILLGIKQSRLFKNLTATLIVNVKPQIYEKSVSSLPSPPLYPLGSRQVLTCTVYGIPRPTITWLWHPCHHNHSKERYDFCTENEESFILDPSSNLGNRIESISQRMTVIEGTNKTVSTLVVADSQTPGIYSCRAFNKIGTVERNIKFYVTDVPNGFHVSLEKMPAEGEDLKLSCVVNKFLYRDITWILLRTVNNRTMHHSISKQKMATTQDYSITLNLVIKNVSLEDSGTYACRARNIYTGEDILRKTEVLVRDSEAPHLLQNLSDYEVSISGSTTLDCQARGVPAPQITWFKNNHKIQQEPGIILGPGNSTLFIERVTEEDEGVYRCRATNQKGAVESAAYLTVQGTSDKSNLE
In words: MSD ECL competition on plate-bound mouse VEGFR1-Fc; competitor biotin mouse VEGFA164 (0.2 nM). The procedure, abridged:
as §1

T1 sequence (P17948 27-687 limits assumed): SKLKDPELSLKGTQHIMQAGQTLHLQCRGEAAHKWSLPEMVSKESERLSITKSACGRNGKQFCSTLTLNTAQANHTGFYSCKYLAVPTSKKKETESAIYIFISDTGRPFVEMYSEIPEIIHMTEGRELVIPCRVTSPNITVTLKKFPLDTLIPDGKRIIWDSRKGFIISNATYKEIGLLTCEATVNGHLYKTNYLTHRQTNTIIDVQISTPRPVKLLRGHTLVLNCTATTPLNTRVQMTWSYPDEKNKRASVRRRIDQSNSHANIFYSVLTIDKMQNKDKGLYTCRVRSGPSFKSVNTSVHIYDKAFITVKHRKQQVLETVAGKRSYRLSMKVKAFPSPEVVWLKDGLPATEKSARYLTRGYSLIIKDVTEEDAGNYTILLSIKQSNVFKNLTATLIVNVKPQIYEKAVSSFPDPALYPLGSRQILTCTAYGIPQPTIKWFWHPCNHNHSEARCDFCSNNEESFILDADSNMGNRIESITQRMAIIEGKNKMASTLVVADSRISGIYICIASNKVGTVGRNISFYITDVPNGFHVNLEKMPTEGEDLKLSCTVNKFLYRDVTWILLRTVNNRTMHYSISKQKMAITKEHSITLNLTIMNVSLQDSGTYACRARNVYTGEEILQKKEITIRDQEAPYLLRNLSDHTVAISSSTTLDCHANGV
Chain of recombinant human VEGFR1 (D1-D3) (P17948 27-328 limits assumed): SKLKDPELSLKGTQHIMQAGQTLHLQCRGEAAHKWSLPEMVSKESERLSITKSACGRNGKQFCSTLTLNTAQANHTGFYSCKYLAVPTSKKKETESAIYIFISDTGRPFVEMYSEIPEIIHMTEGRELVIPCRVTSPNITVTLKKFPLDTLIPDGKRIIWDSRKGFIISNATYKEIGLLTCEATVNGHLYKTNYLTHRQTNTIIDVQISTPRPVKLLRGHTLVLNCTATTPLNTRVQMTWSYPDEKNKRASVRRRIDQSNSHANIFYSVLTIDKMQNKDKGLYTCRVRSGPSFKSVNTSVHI
Chain of human VEGFR1 (soluble antigen of the KinExA and SPR affinity assays) (P17948 27-758 limits assumed): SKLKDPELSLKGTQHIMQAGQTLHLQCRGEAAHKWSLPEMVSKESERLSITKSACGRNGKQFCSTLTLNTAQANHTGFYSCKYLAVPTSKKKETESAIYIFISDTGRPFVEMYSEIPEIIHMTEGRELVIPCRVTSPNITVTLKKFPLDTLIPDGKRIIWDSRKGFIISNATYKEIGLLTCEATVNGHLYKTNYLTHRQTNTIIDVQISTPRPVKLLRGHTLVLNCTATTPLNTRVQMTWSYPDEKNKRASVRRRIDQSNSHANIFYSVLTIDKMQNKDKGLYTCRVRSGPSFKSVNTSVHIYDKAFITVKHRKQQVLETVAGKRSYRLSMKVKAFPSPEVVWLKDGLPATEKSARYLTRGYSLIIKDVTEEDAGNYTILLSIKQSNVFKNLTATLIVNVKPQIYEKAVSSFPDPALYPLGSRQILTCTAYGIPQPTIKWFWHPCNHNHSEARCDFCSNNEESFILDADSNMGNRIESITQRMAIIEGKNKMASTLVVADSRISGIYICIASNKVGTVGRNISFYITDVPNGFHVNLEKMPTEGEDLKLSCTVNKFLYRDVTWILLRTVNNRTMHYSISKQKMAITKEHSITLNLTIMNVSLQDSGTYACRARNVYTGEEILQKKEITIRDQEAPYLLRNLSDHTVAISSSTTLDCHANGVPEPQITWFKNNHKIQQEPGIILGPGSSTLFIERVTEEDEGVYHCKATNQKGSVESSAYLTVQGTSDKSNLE

A word on the Kd: it is the equilibrium constant for the complex coming apart. The IC50 is the concentration at which inhibition is half-maximal. On to B1, for which the Kd in experiment [1] was less than 0.045 nM; with human VEGFR1 (D2-D3) it was less than 0.03 nM. Besides, the IC50 in [2] was 0.156 nM; in the experiment with His tagged cyno VEGFR1 [3] it was 0.261 nM. Besides, the “Max % Inh.” value (in [2]; with His tagged cyno VEGFR1 [3]) was 100% in each case.
Molecule B2 gave a dissociation constant (Kd) with human VEGFA165 [4] of 22 nM. Besides, in the experiment with human VEGFA165 [5], the “fold reduction in affinity” value was roughly 1000 fold.
B3: in experiment [6], the IC50 is 8.92 nM and the “Max % Inh.” value stood at 98.6%. Besides, in the experiment with His tagged cyno VEGFR1 [7], the IC50 stood at 13.3 nM and the “Max % Inh.” value stood at 99.2%.
Turning to B4, the Kd is roughly 0.2 pM in [8], roughly 0.5 pM in [9] and greater than 2 nM in experiment [10]. Further, the half-maximal inhibitory concentration (IC50) was determined as 0.0655 nM in [11] and 0.044 nM in [12].
As to B5, in [13], the IC50 is 0.15 nM and the “Max % Inh.” value was determined as 99.9%.
